± gives the standard deviation of the averaged measurements.
Tested on: Saccharomyces cerevisiae
Assay: protein stability index of tFT-peptide fusion (C-terminal peptide) (PSI (0-1 scale)); higher = more stable (slower turnover)
Settings: temperature: 30 C
Description: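 MPS profiling in S. cerevisiae of the yeast C-terminome library: the last 12 aa of each annotated ORF are fused to the C-terminus of a sfGFP-mCherry timer, after a GGGS linker. Cells are FACS-sorted into 8 mCherry/sfGFP bins and deep-sequenced. PSI runs from 0 (unstable) to 1 (stable); wild type and das1Δ backgrounds, two technical replicates each.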

[1] = genetic background: das1 deletion

Sequence	protein stability index [1]	protein stability index (genetic background: wild type)
CLILSQYSILMD [ATG18 C-terminal 12 aa]	0.631 ± 0.038	0.616 ± 0.045
CLMVSFLLLFGV [OLI1 C-terminal 12 aa]	0.315 ± 0.0097	0.3088 ± 0.0016
CLSGGLLRKIPK [TMH18 C-terminal 12 aa]	0.722 ± 0.087	0.6861 ± 0.006
CPPTIEIGGGGH [MIR1 C-terminal 12 aa]	0.712 ± 0.0075	0.706 ± 0.0053
CSLINSCAFFCL [YDR413C C-terminal 12 aa]	0.704 ± 0.012	0.647 ± 0.013
CSTRRSYLRYKK [YBR285W C-terminal 12 aa]	0.705 ± 0.0047	0.6634 ± 0.0014
CVNSASLNLKKD [MXR2 C-terminal 12 aa]	0.695 ± 0.023	0.682 ± 0.035
CVTQACGRTIKM [YBR141W-A C-terminal 12 aa]	0.732 ± 0.037	0.779 ± 0.13
DAIDNSDEITQD [IRR1 C-terminal 12 aa]	0.709 ± 0.029	0.703 ± 0.064
DALYRIIYGNIL [TIP20 C-terminal 12 aa]	0.711 ± 0.02	0.743 ± 0.037
DATRREVMTERK [LSM2 C-terminal 12 aa]	0.672 ± 0.014	0.688 ± 0.059
DAYHKAAEENKD [MCT1 C-terminal 12 aa]	0.6729 ± 0.0053	0.693 ± 0.016
DDEFGDLDAVFF [SNF6 C-terminal 12 aa]	0.747 ± 0.021	0.739 ± 0.0056
DDIANNQSICCV [YPT11 C-terminal 12 aa]	0.649 ± 0.02	0.649 ± 0.018
DDSKILIEHLSE [PET54 C-terminal 12 aa]	0.697 ± 0.024	0.662 ± 0.04
DEFIKKNSDKIR [EXO84 C-terminal 12 aa]	0.676 ± 0.047	0.64 ± 0.037
DEMQDFLKKHAS [SWI6 C-terminal 12 aa]	0.7311 ± 0.0031	0.643 ± 0.033
DERLEQLKRLGI [HOM3 C-terminal 12 aa]	0.7246 ± 0.0048	0.677 ± 0.019
DERRQPVSNLRM [YDL163W C-terminal 12 aa]	0.712 ± 0.018	0.658 ± 0.01
DEVTYLMFSSIM [SPG1 C-terminal 12 aa]	0.713 ± 0.011	0.658 ± 0.026
DEWLNLHINIVE [SHU2 C-terminal 12 aa]	0.741 ± 0.0062	0.717 ± 0.014

Sequence	protein stability index [1]	protein stability index (genetic background: wild type)
DEWRAKYGGQQV [MES1 C-terminal 12 aa]	0.675 ± 0.037	0.676 ± 0.029
DFENKLKKKKRK [TMA64 C-terminal 12 aa]	0.7268 ± 0.0047	0.715 ± 0.018
DIDDDVGEDSED [RMR1 C-terminal 12 aa]	0.694 ± 0.014	0.662 ± 0.013
DIIYFRAGAGKN [OLA1 C-terminal 12 aa]	0.691 ± 0.017	0.6666 ± 0.0055
DILKILSSSFHN [SPC29 C-terminal 12 aa]	0.7095 ± 0.0039	0.709 ± 0.014
DISVQQVKIASK [SPF1 C-terminal 12 aa]	0.682 ± 0.018	0.6857 ± 0.0041
DKAAPALKKVKM [SFL1 C-terminal 12 aa]	0.675 ± 0.026	0.71 ± 0.041
DKIDVVLKKISQ [ECM15 C-terminal 12 aa]	0.7095 ± 0.0048	0.683 ± 0.067
DKLAQRLRALRG [DID2 C-terminal 12 aa]	0.699 ± 0.01	0.684 ± 0.048
DKLSWSVRWEPR [URA4 C-terminal 12 aa]	0.712 ± 0.021	0.721 ± 0.022
DLEFEEQREPKL [NVJ2 C-terminal 12 aa]	0.719 ± 0.006	0.668 ± 0.011
DLKTGNAVKGEL [SSZ1 C-terminal 12 aa]	0.669 ± 0.019	0.6914 ± 0.0056
DLLDMIDSLGKL [FSH3 C-terminal 12 aa]	0.688 ± 0.023	0.694 ± 0.056
DNFMNNSDIFQN [TGL5 C-terminal 12 aa]	0.741 ± 0.027	0.686 ± 0.0082
DPSKLRRVPVIQ [RGL1 C-terminal 12 aa]	0.69 ± 0.018	0.687 ± 0.066
DQAKDASPNAKK [RGM1 C-terminal 12 aa]	0.694 ± 0.0073	0.673 ± 0.011
DRKQSQATNATN [ARP7 C-terminal 12 aa]	0.687 ± 0.016	0.671 ± 0.0046
DRVQRAFPKPDT [GLG2 C-terminal 12 aa]	0.704 ± 0.016	0.686 ± 0.032
DSEEKKSKKSKK [CBF5 C-terminal 12 aa]	0.669 ± 0.056	0.6785 ± 0.0045
DSHEDMKRRRLE [ROX3 C-terminal 12 aa]	0.6865 ± 0.0045	0.695 ± 0.0078
DSIRRIREKYSN [APP1 C-terminal 12 aa]	0.6896 ± 0.0039	0.492 ± 0.013

Sequence	protein stability index [1]	protein stability index (genetic background: wild type)
DTFFDRVMKVLT [NAN1 C-terminal 12 aa]	0.707 ± 0.034	0.6917 ± 0.0012
DVLDDLYRKLQR [CSE2 C-terminal 12 aa]	0.7138 ± 8.1e-05	0.699 ± 0.02
DWQNGQVEDSIP [PEX14 C-terminal 12 aa]	0.711 ± 0.023	0.672 ± 0.0079
DYKLRELIYDTI [AIP5 C-terminal 12 aa]	0.7014 ± 0.0011	0.661 ± 0.018
DYSFVNTFRDYE [HAL9 C-terminal 12 aa]	0.697 ± 0.022	0.736 ± 0.053
EAAKKSEKKAKK [RPL34A C-terminal 12 aa]	0.695 ± 0.0092	0.689 ± 0.023
EAAKYFREQYKN [MET6 C-terminal 12 aa]	0.7045 ± 0.0028	0.7172 ± 0.0068
EATIENLKRLKL [VAS1 C-terminal 12 aa]	0.693 ± 0.016	0.642 ± 0.0087
ECPGGCPGVAFI [RTC1 C-terminal 12 aa]	0.7077 ± 0.0053	0.685 ± 0.024
EDDITVVVVRVD [PTC7 C-terminal 12 aa]	0.646 ± 0.019	0.673 ± 0.02
EDEFLINSDDEM [CUE5 C-terminal 12 aa]	0.726 ± 0.064	0.716 ± 0.037
EDWSVEELIVDL [RPO26 C-terminal 12 aa]	0.681 ± 0.009	0.71 ± 0.022
EEANEDEEEDDW [MYO5 C-terminal 12 aa]	0.6825 ± 0.0025	0.706 ± 0.015
EEEAGYSDVEME [UTP5 C-terminal 12 aa]	0.6936 ± 0.005	0.698 ± 0.013
EEEKRRRKKGIR [SPT2 C-terminal 12 aa]	0.706 ± 0.022	0.662 ± 0.0095
EEGEVVEEEAEK [HSP78 C-terminal 12 aa]	0.678 ± 0.022	0.6852 ± 0.0044
EELEAEQIDVFS [PRP8 C-terminal 12 aa]	0.689 ± 0.023	0.684 ± 0.02
EELFEEDSFYKY [NDT80 C-terminal 12 aa]	0.736 ± 0.011	0.759 ± 0.019
EEPQLDLLDDVL [MTW1 C-terminal 12 aa]	0.706 ± 0.03	0.709 ± 0.084
EESEKQLYTVLK [CUS1 C-terminal 12 aa]	0.688 ± 0.0087	0.676 ± 0.01
EETLEFDPTLLV [YBL062W C-terminal 12 aa]	0.707 ± 0.0077	0.692 ± 0.023

Sequence	protein stability index [1]	protein stability index (genetic background: wild type)
EFEENPNPTVEN [HSP42 C-terminal 12 aa]	0.731 ± 0.033	0.702 ± 0.054
EFHQDFFSKYRN [ALT2 C-terminal 12 aa]	0.707 ± 0.011	0.729 ± 0.027
EGENVRSKVERF [YKL070W C-terminal 12 aa]	0.7262 ± 0.0046	0.704 ± 0.053
EGKEEIIYDSEG [RAD55 C-terminal 12 aa]	0.6913 ± 0.006	0.677 ± 0.047
EGSGEFVGEMEI [MRS6 C-terminal 12 aa]	0.708 ± 0.0019	0.714 ± 0.067
EHTMLAKAQGHD [XPT1 C-terminal 12 aa]	0.71 ± 0.022	0.6558 ± 0.0011
EIDGQFCIFQVV [YJL107C C-terminal 12 aa]	0.711 ± 0.013	0.647 ± 0.031
EIKPYLRFTKSK [PRX1 C-terminal 12 aa]	0.692 ± 0.011	0.718 ± 0.085
EIRKRRASSLKA [RPS6A C-terminal 12 aa]	0.649 ± 0.021	0.646 ± 0.0092
EKIKRDLALKKG [PET100 C-terminal 12 aa]	0.697 ± 0.045	0.661 ± 0.059
EKLAALVENAEV [PUF3 C-terminal 12 aa]	0.68 ± 0.0089	0.679 ± 0.04
EKLQLWHSMSND [YOR008C-A C-terminal 12 aa]	0.698 ± 0.0035	0.72 ± 0.033
ELKAHNINVVDK [PNC1 C-terminal 12 aa]	0.662 ± 0.037	0.675 ± 0.044
ELNEEKRRSALP [SAK1 C-terminal 12 aa]	0.687 ± 0.023	0.686 ± 0.016
ELQEKVEQLSKW [POL3 C-terminal 12 aa]	0.7208 ± 0.00089	0.688 ± 0.026
ELYNIIVKSVPK [YRB2 C-terminal 12 aa]	0.673 ± 0.0039	0.695 ± 0.045
EMTHSLFKKYGI [CRC1 C-terminal 12 aa]	0.705 ± 0.017	0.722 ± 0.047
ENFNEVFEAIRS [RSC3 C-terminal 12 aa]	0.6822 ± 0.0037	0.709 ± 0.016
ENFSSALQSPIF [YDL152W C-terminal 12 aa]	0.733 ± 0.0084	0.754 ± 0.055
ENVLFYIGRVNK [COB C-terminal 12 aa]	0.726 ± 0.026	0.669 ± 0.017

Source: the supplement of paper PMC10724198
